According to PMC8363014, “OsMADS23 phosphorylated by SAPK9 confers drought and salt tolerance by regulating ABA biosynthesis in rice”:

B1: OsNCED2-a (probe 1) (dsDNA)
DNA 1: AACATTCTATCCCATAAAATTGTGTTTTGTTGCAAATGTCC
DNA 2: GGACATTTGCAACAAAACACAATTTTATGGGATAGAATGTT
modifications: 3' biotin
B2: OsNCED2-c (probe 3) (dsDNA)
DNA 1: GGGGCTAATAATTAGCCTTCCAAAATTTTGCTATTTATAAGTA
DNA 2: TACTTATAAATAGCAAAATTTTGGAAGGCTAATTATTAGCCCC
modifications: 3' biotin
B3: OsNCED2-b (probe 2) (dsDNA)
DNA 1: GGGGTTGTCTATGTAACATATAATTGGATATATATTCATTCC
DNA 2: GGAATGAATATATATCCAATTATATGTTACATAGACAACCCC
modifications: 3' biotin

Target: OsMADS23 (Oryza sativa (rice), UniProt Q6VAM4 1-159)
Experiment: EMSA; signal reduced by excess unlabeled probe; LightShift Chemiluminescent EMSA kit (Thermo), manufacturer's instructions; buffer, salt, pH and temperature not stated
Details: protein: recombinant; tags: His, trigger factor (pCold-TF); chain copies: 2; label: biotin; blunt

OsMADS23, sequence (Q6VAM4 whole entry): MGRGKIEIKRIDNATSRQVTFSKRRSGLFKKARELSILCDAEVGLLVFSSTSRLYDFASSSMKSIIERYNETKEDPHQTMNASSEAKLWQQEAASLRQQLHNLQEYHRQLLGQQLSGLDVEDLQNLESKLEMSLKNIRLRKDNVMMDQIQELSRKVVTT

Binding result, binds:
B1
B2
B3
